Test results as given in the supplement of paper PMC10567573.
± gives the standard deviation.

Assay: protein stability index of a GFP-peptide fusion (GPS, HEK-293T) (PSI 1-6); higher = more stable
[1] = treatment: DMSO, c terminus: a fixed tail appended
[2] = treatment: MLN4924 1 uM, 8 h, c terminus: a fixed tail appended
[3] = treatment: DMSO, c terminus: native
[4] = treatment: MLN4924 1 uM, 8 h, c terminus: native
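Note: 24-mer peptide tiles fused after GFP, lentivirally expressed, FACS-sorted into six equal bins by GFP/DsRed ratio, decoded by Illumina sequencing, PSI is the read-weighted mean bin number.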

MGVSSVIHPKNPHAPTIHFNYRYF [CPOX]
protein stability index [1]: 2.16 ± 0.35
protein stability index [2]: 2.12 ± 0.18

MLCSQPGLANSSRVRGRVGTIRPV [C22orf15]
protein stability index [1]: 3.23 ± 0.27
protein stability index [2]: 3.37 ± 0.2

MNCLPSNRTLWRLDLAGNNIPGDV [LRRC45]
protein stability index [1]: 2.75 ± 0.37
protein stability index [2]: 2.86 ± 0.4

MPAHLLQDDISSSYTTTTTITAPP [SCD]
protein stability index [1]: 3.99 ± 0.21
protein stability index [2]: 3.88 ± 0.28

MPDEPVEAPALPAPAAPMVSKGAE [BRD3]
protein stability index [1]: 5.17 ± 0.37
protein stability index [2]: 5.37 ± 0.3

MPGDTDDAFPVHRVMMASASDYFK [KLHL13]
protein stability index [1]: 3.66 ± 0.35
protein stability index [2]: 3.6 ± 0.13

MPKNSKVTQREHSSEHVTESVADL [SLC6A17]
protein stability index [1]: 5.4 ± 0.14
protein stability index [2]: 5.45 ± 0.085

MQQLYQVQLAQQQAALQKQQEVVV [ACBD3]
protein stability index [1]: 2.96 ± 0.19
protein stability index [2]: 3.05 ± 0.22

MRDQYEQMAEKNRRDAETWFLSKT [KRT16]
protein stability index [1]: 4.29 ± 0.089
protein stability index [2]: 4.31 ± 0.12

MRLSWSVAQGPFDSFVVQYEDTNG [TNXB]
protein stability index [1]: 2.26 ± 0.17
protein stability index [2]: 2.21 ± 0.12

MRVGPVRSAMSGASQPRGPALLFP [TRIB1]
protein stability index [1]: 3.48 ± 0.65
protein stability index [2]: 3.08 ± 0.24

MSGGPMGGRPGGRGAPAVQQNIPS [WAS]
protein stability index [1]: 4.31 ± 0.35
protein stability index [2]: 4.62 ± 0.18

MSRRTRCEDLDELHYQDTDSDVPE [MYBL2]
protein stability index [1]: 5.33 ± 0.2
protein stability index [2]: 5.59 ± 0.2

MSSQVVGIEPLYIKAEPASPDSPK [ESRRA]
protein stability index [1]: 4.86 ± 0.12
protein stability index [2]: 4.89 ± 0.095

MSTNTVGLGLPMSRSQNTDMVQKS [CLINT1]
protein stability index [1]: 4.59 ± 0.13
protein stability index [2]: 4.7 ± 0.28

MTESLEASEFLEQSMSQTRELLLD [RSPH3]
protein stability index [1]: 4.9 ± 0.12
protein stability index [2]: 4.98 ± 0.32

MTPQLFINYKLKSVAHLPWRMLTY [CLPTM1]
protein stability index [1]: 2.57 ± 0.71
protein stability index [2]: 2.45 ± 0.56

MVVKTFMDMDQDSEEEKELYLNLA [PDS5B]
protein stability index [1]: 2.79 ± 0.22
protein stability index [2]: 3 ± 0.23

NALVTKLLLDCGAEVNAVDNEGNS [FEM1B]
protein stability index [1]: 3.64 ± 0.19
protein stability index [2]: 3.72 ± 0.17

NASHKLEVRLVPVSFEDPEFKSSF [ATE1]
protein stability index [1]: 2.65 ± 0.25
protein stability index [2]: 3.18 ± 0.19

NCHIGGSFSEETEKKFEHFSGLLN [LOXL2]
protein stability index [1]: 3.02 ± 0.27
protein stability index [2]: 3.44 ± 0.32

NEEIQSFIYSLKQMLLNVEANSAK [FSD1]
protein stability index [1]: 2.99 ± 0.73
protein stability index [2]: 2.72 ± 0.38

NEWRRPIIQFVESGDDKNSNYFSM [TRIM29]
protein stability index [1]: 3 ± 0.3
protein stability index [2]: 3.12 ± 0.34

NFAVQHRYLFEEDNLLRSTQKLSH [MATN2]
protein stability index [1]: 2.97 ± 0.24
protein stability index [2]: 2.85 ± 0.27

NFDSIYICPSTFACAQLATGAACR [HDAC6]
protein stability index [1]: 2.24 ± 0.21
protein stability index [2]: 2.16 ± 0.26

NGATDDSKTNLIVNYLPQNMTQDE [ELAVL3]
protein stability index [1]: 5.08 ± 0.29
protein stability index [2]: 5.21 ± 0.041

NGNEEDNHLPPQTKRSSRNPVFQD [FAM104A]
protein stability index [1]: 5.16 ± 0.29
protein stability index [2]: 5.26 ± 0.2

NGNSYICKCSEGFVLAEDGRRCKK [MATN2]
protein stability index [1]: 3.75 ± 0.28
protein stability index [2]: 4.1 ± 0.19

NICELAARMLFSAVEWARNIPFFP [NR2F2]
protein stability index [1]: 3.61 ± 0.17
protein stability index [2]: 3.23 ± 0.06

NKIKVMHKQLLLFHNAVSAYFAGN [ARFIP2]
protein stability index [1]: 2.55 ± 0.64
protein stability index [2]: 2.34 ± 0.24

NLARQWNNCAFLESSAKSKINVNE [RAP1B]
protein stability index [1]: 2.93 ± 0.33
protein stability index [2]: 2.75 ± 0.19

NLGPKSKVLILRNHGLVSVGESVE [ADD1]
protein stability index [1]: 2.69 ± 0.23
protein stability index [2]: 3.05 ± 0.38

NLGVENMNHYKKTTLEIHNTEERQ [PTPN9]
protein stability index [1]: 4.4 ± 0.2
protein stability index [2]: 4.8 ± 0.28

NLHSLALDFCDFTAEMARVLTDSN [FBXO33]
protein stability index [1]: 1.84 ± 0.25
protein stability index [2]: 2.49 ± 0.61

NLNEDDTFLVFSKAELGALPHDFI
protein stability index [1]: 2.82 ± 0.2
protein stability index [2]: 2.87 ± 0.16

NLYSWDDFMELGRSIPDTQLEQVI [ACSBG2]
protein stability index [1]: 3.25 ± 0.25
protein stability index [2]: 3.38 ± 0.31

NNVVDISVPPTTDGQKPNKLQCCQ [RAB11B]
protein stability index [1]: 4.72 ± 0.26
protein stability index [2]: 4.58 ± 0.12

NRKVSQRRVDFCKDPSAIGKKQVP [CASP6]
protein stability index [1]: 4.04 ± 0.16
protein stability index [2]: 4.26 ± 0.22

NRLLQEENRTLQVLRAEHRGFQEE [CBY2]
protein stability index [1]: 4.43 ± 0.21
protein stability index [2]: 4.46 ± 0.12

NRVFSLQDLCCRAIVSCTPVHLID [RAB40C]
protein stability index [1]: 2.53 ± 0.26
protein stability index [2]: 2.35 ± 0.27

NTLAPTCFKAKLHRKRGSQPPDMA [RSPH3]
protein stability index [1]: 3.83 ± 0.12
protein stability index [2]: 3.87 ± 0.25

NVGEISVSTRLTVLREDQIPRGFP [PTPRD]
protein stability index [1]: 3.31 ± 0.54
protein stability index [2]: 3.44 ± 0.44

NWFMSFGPEIKLNTSQQGRNQAV [FAM104B]
protein stability index [3]: 2.12 ± 0.49
protein stability index [4]: 2.73 ± 1

NWLQVSFTAKHANKVKVLDAPVPD [FSD1]
protein stability index [1]: 3.02 ± 0.15
protein stability index [2]: 2.91 ± 0.19

NWPARQRGTHAVVGVATARAPLHS [SPSB4]
protein stability index [1]: 3.52 ± 0.19
protein stability index [2]: 3.57 ± 0.27

PAAKPDPDGGRADEWACELRLFGR [P3H4]
protein stability index [1]: 3.47 ± 0.23
protein stability index [2]: 3.36 ± 0.33

PAPEAAHTTGPTGSAPNSPMALLT [TFE3]
protein stability index [1]: 4.67 ± 0.12
protein stability index [2]: 4.67 ± 0.16

PAPTPTPPGRLGAPYSEAWGYFHL [ZBED3]
protein stability index [1]: 2.37 ± 0.27
protein stability index [2]: 2.23 ± 0.6

PASQHSTPAGLPPSRAKPPTEGAG [FBF1]
protein stability index [1]: 5.39 ± 0.3
protein stability index [2]: 5.293 ± 0.028

PCGKYNAMVLELLGPSLEDLFDLC [CSNK1G1]
protein stability index [1]: 2.69 ± 1.2
protein stability index [2]: 2.21 ± 0.5

PDLTQAPSSLMETLEQHLNTLEGK [SNAP91]
protein stability index [1]: 4.77 ± 0.35
protein stability index [2]: 5.08 ± 0.21

PDVIPLPHIYGARIKGVEVFCPLD [FAM189A2]
protein stability index [1]: 2.55 ± 0.25
protein stability index [2]: 2.64 ± 0.14

PEGHVLRSDGKTCAKLDSCALGDH [MATN2]
protein stability index [1]: 4.79 ± 0.13
protein stability index [2]: 4.72 ± 0.21

PELKSLAKTFHLVNPNGQKQQLVD [FAN1]
protein stability index [1]: 4.05 ± 0.07
protein stability index [2]: 4.2 ± 0.22

PGGGAGMAAGFPYALRAYLGYQAV [CEBPB]
protein stability index [1]: 2.71 ± 0.77
protein stability index [2]: 2.72 ± 0.41

PGGNLIVELARYLVDVRQEQLQGF [DNAAF3]
protein stability index [1]: 2.9 ± 0.56
protein stability index [2]: 2.39 ± 0.14

PGGRPEVIYNYVQRPFIRMSWEKE [BTBD10]
protein stability index [1]: 3.06 ± 0.41
protein stability index [2]: 3.21 ± 0.43

PGLLGSMALSNHYRSEDLLDVDTA [FBXO3]
protein stability index [1]: 4.24 ± 0.097
protein stability index [2]: 4.32 ± 0.24

PHQTSKMENLPGLASGPGKYMPHL
protein stability index [1]: 3.44 ± 0.23
protein stability index [2]: 3.65 ± 0.076

PIDFEESRFYEIHARARDQGQPAM [PCDHGC5]
protein stability index [1]: 4.3 ± 0.2
protein stability index [2]: 4.38 ± 0.21

PILAPRIFGSNKWTTEQQQRFHEI [ARL6IP1]
protein stability index [1]: 3.07 ± 0.25
protein stability index [2]: 3 ± 0.22

PKETQPFPKSEQVYLHFLSVVTED [ZNF232]
protein stability index [1]: 2.69 ± 0.24
protein stability index [2]: 2.99 ± 0.28

PKTQACSGSESPSDSGKDLPEPSK [MYCL]
protein stability index [1]: 5.36 ± 0.23
protein stability index [2]: 5.63 ± 0.25

PLDFEAYSAAALQEAMKRLRGAKA [FCHO1]
protein stability index [1]: 3.46 ± 0.25
protein stability index [2]: 3.62 ± 0.29

PLLPAPPKTPMDGADCGIQWWNAV [LYSMD4]
protein stability index [1]: 3.48 ± 0.42
protein stability index [2]: 3.62 ± 0.21

PLLRWVLTLSFLVATVAVGLYAM [HMOX1]
protein stability index [3]: 2.86 ± 0.15
protein stability index [4]: 2.57 ± 0.31

PLLSASVTGHTNIVDFLTHHAQTS [FEM1C]
protein stability index [1]: 3.11 ± 0.27
protein stability index [2]: 3.11 ± 0.23

PMKSAPVMLTLSDSKHVVLPVDDD [RBBP5]
protein stability index [1]: 5.08 ± 0.12
protein stability index [2]: 5.07 ± 0.08

PMQERRASFYACRLDKHLYVIGGR [KLHL14]
protein stability index [1]: 2.15 ± 0.49
protein stability index [2]: 2.23 ± 0.28

PPCAWACPVPAHRRGSWRLPYTDG [CTBP1-DT]
protein stability index [1]: 2.92 ± 0.23
protein stability index [2]: 2.93 ± 0.17

PPDLGAQRRHGWNPKDCSENIEVK [SPSB2]
protein stability index [1]: 4.84 ± 0.29
protein stability index [2]: 5.03 ± 0.14

PPPPPPSRGGPPPPPPPPHNSGPP [WASL]
protein stability index [1]: 5.28 ± 0.17
protein stability index [2]: 5.3 ± 0.2

PQKASPNGSISSAGNSSRNSSQSS [BTBD10]
protein stability index [1]: 5.04 ± 0.24
protein stability index [2]: 4.96 ± 0.13

PQTHSNRIYRMIKLGLGIDEDEVA [HSP90AB1]
protein stability index [1]: 3.25 ± 0.4
protein stability index [2]: 3.49 ± 0.31

PRAAHACATVGNRGFVFGGRYRDA [KLHDC2]
protein stability index [1]: 2.19 ± 0.19
protein stability index [2]: 2.12 ± 0.14

PRAERKCPRIAPADSGRYRASPTR [ELOA2]
protein stability index [1]: 4.47 ± 0.14
protein stability index [2]: 4.47 ± 0.26

PRCDLVDLGEGKICFCCEEFQPAK [FAM189A2]
protein stability index [1]: 3.3 ± 0.44
protein stability index [2]: 3.67 ± 0.49

PRLKEDQPWMVIEGIRQTEYTLTG [FSD1]
protein stability index [1]: 3.18 ± 0.34
protein stability index [2]: 3.12 ± 0.19

PRLTMHYPCLEKPRIWSLAHTATA [IRX6]
protein stability index [1]: 2.31 ± 0.18
protein stability index [2]: 2.5 ± 0.11

PRSSLAESFFVDYEENEGAGPYLL [ADAMTSL2]
protein stability index [1]: 3.91 ± 0.17
protein stability index [2]: 3.82 ± 0.17

PRTRARLGANEVLLVVGGFGSQQS [KLHL12]
protein stability index [1]: 2.17 ± 0.12
protein stability index [2]: 1.97 ± 0.58

PSAGFRCCAAPGPHVALAVRYNRV [ANKRD9]
protein stability index [1]: 2.37 ± 0.28
protein stability index [2]: 2.21 ± 0.34

PSDKVGRADAHLGSSSVALPKEAS [TOR1AIP2]
protein stability index [1]: 5.23 ± 0.14
protein stability index [2]: 5.04 ± 0.091

PSGCAIACGGLDNKCSVYPLTFDK [GNB5]
protein stability index [1]: 2.72 ± 0.17
protein stability index [2]: 2.94 ± 0.36

PSGPPPPPPSVLGVGPVAPPPPPP [WASL]
protein stability index [1]: 4.86 ± 0.21
protein stability index [2]: 4.89 ± 0.18

PSLYSSYHQGCLVNPTGNLPMWSN [NANOGP8]
protein stability index [1]: 2.39 ± 0.073
protein stability index [2]: 2.37 ± 0.096

PSRRSENRVVVSGLPPSGSWQDLK [SRSF1]
protein stability index [1]: 3.89 ± 0.33
protein stability index [2]: 4.21 ± 0.22

PSRVHGSLEPFRPQQAPQDDGSQD [PWWP2B]
protein stability index [1]: 5.52 ± 0.21
protein stability index [2]: 5.52 ± 0.22

PTVGIGGDRLQFNQLSQAELDELA [EFHC1]
protein stability index [1]: 5.13 ± 0.23
protein stability index [2]: 5.27 ± 0.15
